Earlier results, collected in PMC7228847.

Molecular target: SEMA6A ECD (Mus musculus) (UniProt O35464)
Sequence (O35464 19-649): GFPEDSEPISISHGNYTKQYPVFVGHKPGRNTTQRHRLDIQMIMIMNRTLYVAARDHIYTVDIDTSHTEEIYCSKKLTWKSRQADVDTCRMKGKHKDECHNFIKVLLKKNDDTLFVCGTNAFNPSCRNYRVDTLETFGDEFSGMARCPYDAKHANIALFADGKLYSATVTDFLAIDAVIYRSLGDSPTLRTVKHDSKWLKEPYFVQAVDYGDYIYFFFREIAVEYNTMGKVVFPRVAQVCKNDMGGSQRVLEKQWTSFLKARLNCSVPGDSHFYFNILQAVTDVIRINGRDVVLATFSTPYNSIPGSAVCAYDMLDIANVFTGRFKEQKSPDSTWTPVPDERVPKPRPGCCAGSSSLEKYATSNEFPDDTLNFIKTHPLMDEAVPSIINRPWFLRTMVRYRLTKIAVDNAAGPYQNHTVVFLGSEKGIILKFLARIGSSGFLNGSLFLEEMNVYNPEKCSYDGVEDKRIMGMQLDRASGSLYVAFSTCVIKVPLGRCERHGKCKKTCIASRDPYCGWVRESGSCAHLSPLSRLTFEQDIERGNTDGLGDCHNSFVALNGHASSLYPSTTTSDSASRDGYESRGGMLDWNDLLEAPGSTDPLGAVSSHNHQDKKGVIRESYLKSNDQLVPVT

PlexinA2, sequence (P70207 35-1237): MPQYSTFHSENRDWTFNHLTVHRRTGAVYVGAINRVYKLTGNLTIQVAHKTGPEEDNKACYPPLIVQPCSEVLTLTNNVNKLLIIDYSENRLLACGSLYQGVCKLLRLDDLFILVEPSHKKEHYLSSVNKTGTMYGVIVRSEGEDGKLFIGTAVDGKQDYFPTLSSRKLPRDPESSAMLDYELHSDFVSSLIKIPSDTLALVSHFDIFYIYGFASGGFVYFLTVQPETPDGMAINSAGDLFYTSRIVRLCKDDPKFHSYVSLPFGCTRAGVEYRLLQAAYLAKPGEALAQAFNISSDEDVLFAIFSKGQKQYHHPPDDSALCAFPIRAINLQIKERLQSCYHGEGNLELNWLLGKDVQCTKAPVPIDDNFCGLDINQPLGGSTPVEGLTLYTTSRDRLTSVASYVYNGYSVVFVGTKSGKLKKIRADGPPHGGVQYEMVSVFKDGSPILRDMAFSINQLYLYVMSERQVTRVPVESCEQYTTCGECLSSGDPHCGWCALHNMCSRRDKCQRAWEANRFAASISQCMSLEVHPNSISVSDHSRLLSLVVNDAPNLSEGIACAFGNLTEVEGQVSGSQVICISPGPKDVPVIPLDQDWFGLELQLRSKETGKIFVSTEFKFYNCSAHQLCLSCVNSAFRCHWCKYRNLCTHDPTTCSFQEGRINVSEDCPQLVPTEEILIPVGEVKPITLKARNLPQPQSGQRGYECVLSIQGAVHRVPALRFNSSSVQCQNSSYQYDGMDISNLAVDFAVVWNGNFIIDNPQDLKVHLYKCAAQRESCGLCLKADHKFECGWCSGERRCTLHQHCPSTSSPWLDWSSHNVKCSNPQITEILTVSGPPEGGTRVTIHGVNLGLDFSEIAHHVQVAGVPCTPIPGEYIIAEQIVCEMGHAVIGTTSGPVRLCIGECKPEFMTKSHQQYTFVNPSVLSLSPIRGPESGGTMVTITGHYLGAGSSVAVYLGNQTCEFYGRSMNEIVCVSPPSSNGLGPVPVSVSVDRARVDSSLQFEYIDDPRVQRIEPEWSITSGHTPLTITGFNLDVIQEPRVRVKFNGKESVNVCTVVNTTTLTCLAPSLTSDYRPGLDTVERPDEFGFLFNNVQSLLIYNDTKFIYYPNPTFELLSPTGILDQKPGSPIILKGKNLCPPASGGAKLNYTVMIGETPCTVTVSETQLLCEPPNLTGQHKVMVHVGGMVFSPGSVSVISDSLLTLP

For PlexinA2 (from UniProt P70207), the Kd is given as 2300 nM.
